To fix the notation:
T1: C-reactive protein (CRP) (Homo sapiens, UniProt P02741 P02741:19-224)
T1 sequence: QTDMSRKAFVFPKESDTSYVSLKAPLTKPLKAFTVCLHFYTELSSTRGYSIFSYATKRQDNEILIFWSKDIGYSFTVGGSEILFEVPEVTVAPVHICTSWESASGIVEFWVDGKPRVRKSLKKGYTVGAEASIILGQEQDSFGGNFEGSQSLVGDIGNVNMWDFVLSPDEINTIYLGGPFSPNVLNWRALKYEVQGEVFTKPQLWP

T2: Alpha-fetoprotein (Homo sapiens, UniProt P02771 P02771:19-609)
T2 sequence: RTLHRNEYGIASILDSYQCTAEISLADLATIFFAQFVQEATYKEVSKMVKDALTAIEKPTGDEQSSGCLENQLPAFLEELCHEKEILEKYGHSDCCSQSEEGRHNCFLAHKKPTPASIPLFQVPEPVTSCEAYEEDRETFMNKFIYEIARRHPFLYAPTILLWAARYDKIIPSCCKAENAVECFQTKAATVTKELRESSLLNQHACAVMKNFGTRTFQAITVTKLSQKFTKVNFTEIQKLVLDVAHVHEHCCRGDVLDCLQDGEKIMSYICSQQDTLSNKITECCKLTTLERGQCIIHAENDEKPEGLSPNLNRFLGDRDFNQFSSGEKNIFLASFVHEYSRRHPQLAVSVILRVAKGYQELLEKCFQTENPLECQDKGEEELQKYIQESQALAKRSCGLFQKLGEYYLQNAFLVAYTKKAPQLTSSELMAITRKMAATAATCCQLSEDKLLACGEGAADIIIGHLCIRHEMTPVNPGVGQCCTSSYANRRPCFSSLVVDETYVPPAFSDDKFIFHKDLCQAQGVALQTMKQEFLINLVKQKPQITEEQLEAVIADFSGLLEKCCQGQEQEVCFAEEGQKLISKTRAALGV

B1: TNI-2 (ssDNA)
DNA: CTGTCGTTAGTGAAGGTTGGTAACAACGACCGGGACTAACGGCAGCAGCGACACCGGTAACGCCATATCACAGACG
B2: IL-10-2 (ssDNA)
DNA: TAGGTGCTCGACGCTGACCCAATCCTGACACACCGTATTAAGCCGCGTACTCAGTCGCAGGTCATG
B3: IL-10-1 (ssDNA)
DNA: TAGGTGCTCGACGCTGACCCAGGGCTACACCTTATCCATTCGCGCGGTACTCAGTCGCAGGTCATG
B4: IL-10-5 (ssDNA)
DNA: TAGGTGCTCGACGCTGACCCAGGCACACCTATCCAACTGTCACCGGCCACTCAGTCGCAGGTCATG
B5: IL-10-4 (ssDNA)
DNA: TAGGTGCTCGACGCTGACCCCCCAGTCACACCTTATGACCGTCCCGCCACTCAGTCGCAGGTCATG
B6: TNI-B4 (ssDNA)
DNA: CTGTCGTTAGTGAAGGTTGCCCCGGGAACCGAAACTTGCGACCTGTCGTCACCTTGTAACGCCATATCACAGACG
B7: TNI-B3 (ssDNA)
DNA: CTGTCGTTAGTGAAGGTTGGCGGCGGACCGGAACTAGCGGCAGTCACAGTCGACCCCAACGCCATATCACAGACG
B8: TNI-B2 (= TNI-N2) (ssDNA)
DNA: CTGTCGTTAGTGAAGGTTGCAGGCACGCTGCGATATGTCCAGTTGACCCGGTTTGCCAACGCCATATCACAGACG
B9: TNI-N3 (= TNI-MEDI2) (ssDNA)
DNA: CTGTCGTTAGTGAAGGTTGGCGCAGGAACCTGAACGTTCGACGGGGTCGGCACCTGTAACGCCATATCACAGACG
B10: TNI-B5 (ssDNA)
DNA: CTGTCGTTAGTGAAGGTTGGCGGCGGACCGGAACGAACGGCAGCAGCGACACCGGTAACGCCATATCACAGACG
B11: TNI-CRP2 (ssDNA)
DNA: TAGGTGCTCGACGCTGACCCAGGACGGCACCTTAACCGCGCGTGGGCTACTCAGTCGCAGGTCATG
B12: TNI-CRP4 (ssDNA)
DNA: TAGGTGCTCGACGCTGACGGGCGACACCGAGGGGGCTGGGGCGCGGGTACTCAGTCGCAGGTCATG
B13: TNI-CRP3 (ssDNA)
DNA: TAGGTGCTCGACGCTGACCCAGGGGACACCTATCAATCGTCGTGCGGTACTCAGTCGCAGGTCATG
B14: TNI-CRP1 (ssDNA)
DNA: TAGGTGCTCGACGCTGACCCAGACCCACCAATATATGCCCCGCGGTGTACTCAGTCGCAGGTCATG
B15: TNI-3 (ssDNA)
DNA: B7 DNA with T35G, A46G
B16: TNI-1 (= TNI-B1, TNI-N1, TNI-MEDI1) (ssDNA)
DNA: B1 DNA with T21C
B17: TNI-4 (ssDNA)
DNA: CTGTCGTTAGTGAAGGTTGCCAAGCGAACTGCGACAGGGGATCCAGGAGACGGCCCCAACGCCATATCACAGACG
B18: IL-10-3 (ssDNA)
DNA: TAGGTGCTCGACGCTGACCCACGAAAGACACCGCAGTCCCTCCACGCTACTCAGTCGCAGGTCATG
B19: IL-10-6 (ssDNA)
DNA: TAGGTGCTCGACGCTGACCGGGCATTGACACCTTATCGTGGGGTGGGGACTCAGTCGCAGGTCATG

Numbering of substitutions follows the chain as printed.

Chain of Serum albumin (P02768 25-609, one chain of several): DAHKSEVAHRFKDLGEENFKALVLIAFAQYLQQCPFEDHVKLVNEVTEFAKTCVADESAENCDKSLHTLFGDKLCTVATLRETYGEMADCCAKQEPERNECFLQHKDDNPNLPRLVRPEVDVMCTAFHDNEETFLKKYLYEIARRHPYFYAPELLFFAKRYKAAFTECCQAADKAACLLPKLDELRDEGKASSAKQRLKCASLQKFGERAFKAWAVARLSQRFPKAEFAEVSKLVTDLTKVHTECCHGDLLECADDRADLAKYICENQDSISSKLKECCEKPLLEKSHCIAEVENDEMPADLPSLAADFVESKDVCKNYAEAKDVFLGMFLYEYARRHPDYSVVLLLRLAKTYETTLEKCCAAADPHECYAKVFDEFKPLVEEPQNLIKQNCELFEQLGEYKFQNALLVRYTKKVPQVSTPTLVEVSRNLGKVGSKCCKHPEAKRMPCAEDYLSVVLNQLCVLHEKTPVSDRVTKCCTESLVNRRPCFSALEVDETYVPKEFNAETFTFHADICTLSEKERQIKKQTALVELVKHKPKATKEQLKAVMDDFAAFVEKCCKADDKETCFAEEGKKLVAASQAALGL

The first series deals with T3, Troponin I (TnI) (Homo sapiens, UniProt P19429 P19429:2-210). The series is described as follows: ELONA; very similar affinity to the other TNI aptamers. To be noted: tags: coated on ELISA plate; label: hybridized biotin-labeled primer.
T3 sequence (P19429 2-210, one chain of several): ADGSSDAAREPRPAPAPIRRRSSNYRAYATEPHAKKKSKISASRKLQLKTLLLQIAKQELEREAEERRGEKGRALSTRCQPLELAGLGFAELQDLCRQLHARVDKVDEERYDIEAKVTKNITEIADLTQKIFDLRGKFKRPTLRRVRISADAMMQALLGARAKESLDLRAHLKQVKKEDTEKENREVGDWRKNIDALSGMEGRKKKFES
On to B1, for which the binding result was “binds”.

The target of another series is Interleukin-10 (IL-10) (Homo sapiens, UniProt P22301 P22301:19-178). The series is described as follows: ELONA; only IL-10-3 and IL-10-6 of 6 showed potential binding. To be noted: tags: coated on ELISA plate; chain copies: 2; label: hybridized biotin-labeled primer.
Chain of Interleukin-10 (IL-10) (P22301 19-178, one chain of several): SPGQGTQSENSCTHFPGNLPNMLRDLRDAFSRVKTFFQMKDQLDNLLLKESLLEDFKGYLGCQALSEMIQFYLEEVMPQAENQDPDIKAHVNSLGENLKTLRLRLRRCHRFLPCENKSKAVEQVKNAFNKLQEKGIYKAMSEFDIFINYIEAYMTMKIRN
B2: the binding result was “no binding”. With B3, the binding result is recorded as “no binding”.

With B4, the binding result is “no binding”. On to B5, for which the binding result is on record as “no binding”.

A further series addresses T3, Troponin I (TnI). Kind of series: ELONA; values only in figure. To be noted: tags: coated on ELISA plate; label: hybridized biotin-labeled primer.
With B6, the binding result is listed as “binds”. B7: the binding result was “binds”.

With B8, the binding result is listed as “binds”. As for B9, the binding result is “binds”.

On to B10, for which the binding result is “binds”. Still for that read-out and setting: then B11, with “binds”; and B12, with “binds”. Regarding B13, the binding result was “binds”.

Regarding B14, the binding result is recorded as “binds”.

The target in another series is T1, C-reactive protein (CRP). The series is described as follows: ELONA; specificity control. Conditions: chain copies: 5; label: hybridized biotin-labeled primer.
Regarding B15, the binding result is “no binding”.

On to B16, for which the binding result is given as “no binding”. B17: the binding result is listed as “no binding”. The same measure, in the same setting: then B18, with “no binding”; and B19, with “no binding”.

The target in the next series is T3, Troponin I (TnI). Kind of series: ELONA; specificity control. Conditions: tags: coated on ELISA plate; label: hybridized biotin-labeled primer.
With B18, the binding result is recorded as “no binding”. Regarding B19, the binding result was “no binding”.

A further series concerns the target Serum albumin (Homo sapiens, UniProt P02768 P02768:25-609). The series is described as follows: ELONA; specificity control. Conditions: label: hybridized biotin-labeled primer.
As to B15, the binding result was “no binding”. Regarding B16, the binding result was “no binding”. Take B17: the binding result is listed as “no binding”. Regarding B18, the binding result is “no binding”.

With B19, the binding result is listed as “no binding”.

The target of a further series is T2, Alpha-fetoprotein. Kind of series: ELONA; specificity control. To be noted: label: hybridized biotin-labeled primer.
Regarding B15, the binding result is reported as “no binding”. For B16, the binding result is “no binding”. Regarding B17, the binding result is given as “no binding”.
